Experiment [1] concerns the target T1, CRTH2R (UniProt Q9Y5Y4 1-395, limits assumed).
T1 construct: whole, on cells; also called Prostaglandin D2 receptor 2 (DP2 or CRTH2) receptor
T1 sequence (looked up): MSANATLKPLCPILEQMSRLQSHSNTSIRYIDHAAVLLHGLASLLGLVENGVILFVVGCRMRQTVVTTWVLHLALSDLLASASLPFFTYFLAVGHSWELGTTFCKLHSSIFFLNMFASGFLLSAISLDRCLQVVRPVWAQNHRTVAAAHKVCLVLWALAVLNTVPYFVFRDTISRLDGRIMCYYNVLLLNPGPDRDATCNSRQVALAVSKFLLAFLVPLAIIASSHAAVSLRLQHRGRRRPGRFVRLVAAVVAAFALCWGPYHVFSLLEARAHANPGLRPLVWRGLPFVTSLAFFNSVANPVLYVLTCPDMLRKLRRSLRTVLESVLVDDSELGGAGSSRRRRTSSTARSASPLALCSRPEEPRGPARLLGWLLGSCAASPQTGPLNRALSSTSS
The experiment can be described thus: flow cytometry (MFI), CHO CRTH2R-positive cells against parental CHO cells, 3-fold titration from 100 nM; grey = CRTH2R cells, black = parental cells (no legend on the panel). On the procedure: Cell binding of anti-CRTH2R antibodies was determined by testing on CHO CRTH2R-positive cells (GFP+) and parental CHO cells (GFP−), comparing parental negative and target positive cells to rule out false-positives. Antibodies as listed in Table 14A were titrated starting at 100 nM (15 ug/mL) with 3-fold titrations, for a total of 8 points. Two antibodies (gPCR-51 and gPCR-52) were used as a positive control.

For experiment [2], the target named is T1, CRTH2R. The experiment can be described thus: cell-based or functional assay.
The next experiment deals with T2, human TIGIT (human, UniProt Q495A1 22-141, limits assumed).
T2 construct: also called hTIGIT
T2 sequence (looked up): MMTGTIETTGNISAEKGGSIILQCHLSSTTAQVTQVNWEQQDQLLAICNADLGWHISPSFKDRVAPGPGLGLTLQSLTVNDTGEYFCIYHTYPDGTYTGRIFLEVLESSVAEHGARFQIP
The experiment can be described thus: monovalent affinity of the hTIGIT IgGs; method not named in Example 14.

Here are results for 16 molecules from patent US20210102195A1 (TWIST BIOSCIENCE, published 2021).

B1: CRTH2-74 (antibody)
VH: QVQLVESGGGVVQPGRSLRLSCAASGFSFSEYGIHWVRQAPGKGLEWVAVISYEGSNEYYADSVKGRFTISRDNSKNTLYLQMNSLRAEDTAVYYCARANQHFGPVAGGATPSEEPGSQLTRAELGWDAPPGQESLADELLQLGTEHGYHYYGMDVWGQGTLVTVSS
VL: QSVLTQPPSVSAAPGQKVTISCSGSTSNIGKNYVSWYQQLPGTAPKLLIYDDDERPSGIPDRFSGSMSGTSATLGITGLQTGDEADYYCEAWDADLSGAVFGGGTKLTVL
notes: CRTH2R IgG
The EC50 is the concentration that produces a half-maximal response. As to B1, the EC50 with CRTH2R [1] was found to be 8.61 nM. In addition, the “antagonist activity in PGD2-induced cAMP assay at 33 nM IgG” value (“antagonist activity” below) in the experiment with CRTH2R [2] is more than 20%.

B2: CRTH2-28 (antibody, V domains shown)
VH: QVQLVQSGAEVKKPGSSVNVSCKASGGTFSDYAFSWVRQAPGQGLEWMGAIIPFFGTVNYAQKFQGRVTITADESTSTAYMELSSLRSEDTAVYYCARDMYYDFATGTGGPEDDLYPQGELNDGYRIEVVPADDAFDIWGQGTLVTVSS
VL: QSVLTQPPSVSAAPGQKVTISCSGSISNIGKNYVSWYQQLPGTAPKLLIYDDHKRPSGIPDRFSGSKSGTSATLGITGLQTGDEADYYCATWDRGLSAAVFGGGTKLTVL
Regarding B2, the “antagonist activity” value with CRTH2R [2] is more than 20%.

B3: CRTH2-15 (antibody, V domains shown)
VH: QVQLVQSGAEVKKPGSSVKVSCKASGGTFSTYAIDWVRQAPGQGLEWMGGIIPLFGSPNYAQKFQGRVTITADESTSTAYMELSSLRSEDTAVYYCARANQHFFLYEGTSSSWLHVGHARYGYHYYGMDVWGQGTLVTVSS
VL: QSVLTQPPSVSAAPGQKVTISCSGSGSNIGSNYVSWYQQLPGTAPKLLIYDNIRRPSGIPDRFSGSKSGTSATLGITGLQTGDEADYYCAAWDTRLSAGVFGGGTKLTVL
notes: CRTH2R IgG
As for B3, the EC50 in the experiment with CRTH2R [1] is 73.8 nM. Also, in the experiment with CRTH2R [2], the “antagonist activity” value is more than 20%.

B4: CRTH2 57 (antibody, V domains shown)
VH: QVQLVQSGAEVKKPGSSVKVSCKASGGTFSSYAMSWVRQAPGQGLEWMGGIIPLFGTTDYAQKFQGRVTITADESTSTAYMELSSLRSEDTAVYYCARANQHFVKIQGAPVSTPVPGFGTTGYHYYGMDVWGQGTLVTVSS
VL: QSVLTQPPSVSAAPGQKVTISCSGSSSNIEDNYVSWYQQLPGTAPKLLIYDNFKRPSGIPDRFSGSKSGTSATLGITGLQTGDEADYYCGTWDTSLSAALFGGGTKLTVL
For the molecule B4, in the experiment with CRTH2R [1], the concentration for a half-maximal effect (EC50) came to 158 nM.

B5: CRTH2-45 (antibody)
VH: QVQLVESGGGVVQPGRSLRLSCAASGFTFSHYAMHWVRQAPGKGLEWVADISHEGSNKYYADSVKGRFTISRDNSKNTLYLQMNSLRAEDTAVYYCARDGRGSLPRPKGGPTSGGGFSTNIGYGFVVQSYDSSEDSGGAFDIWGQGTLVTVSS
VL: QSVLTQPPSVSAAPGQKVTISCSGTSSNIENNYVSWYQQLPGTAPKLLIYDNVKRPSGIPDRFSGSKSGTSATLGITGLQTGDEADYYCGTWDNTVSAPWVFGGGTKLTVL
notes: CRTH2R IgG
For B5, the concentration for a half-maximal effect (EC50) with CRTH2R [1] was 23.2 nM. Also, the “antagonist activity” value with CRTH2R [2] was more than 20%.

B6: CRTH2-42 (antibody)
VH: QVQLVESGGGVVQPGRSLRLSCAASGFAFSSYAMHWVRQAPGKGLEWVAVISYEGSNEYYADSVKGRFTISRDNSKNTLYLQMNSLRAEDTAVYYCARDLRELECEEWTVLQYGKFHMRWAESGEGSLSRGPCVDPRGVAGSFDVWGQGTLVTVSS
VL: QSALTQPASVSGSPGQSITISCTGTSSDVGGYRYVSWYQQHPGKAPKLMIYNVNYRPSGVSNRFSGSKSGNTASLTISGLQAEDEADYYCSSYRSSSTLGVFGGGTKLTVL
Consider B6, for which, in the experiment with CRTH2R [2], the “IC50 fold difference of the PGD2 dose response (cAMP) with 100 nM IgG” value was more than 2 fold and the “antagonist activity” value is more than 20%.

B7: CRTH2 35 (antibody, V domains shown)
VH: QVQLVQSGAEVKKPGSSVKVSCKASGGTFRSYAISWVRQAPGQGLEWMGGIIPISGTTNYAQKFQGRVTITADESTSTAYMELSSLRSEDTAVYYCARANQHFTRIFGNYQIYFGHFGYHYYGMDVWGQGTLVTVSS
VL: QSALTQPASVSGSPGQSITISCTGTSSDIGGYEFVSWYQQHPGKAPKLMIYGVSRRPSGVSNRFSGSKSGNTASLTISGLQAEDEADYYCGSYTSSSTPYVFGGGTKLTVL
Consider B7, for which, in the experiment with CRTH2R [1], the EC50 was found to be 12.6 nM.

B8: CRTH2-19 (antibody, V domains shown)
VH: QVQLVQSGAEVKKPGSSVKVSCKASGGTFSSHAINWVRQAPGQGLEWMGRIIPIVGTTTYAQKFQGRVTITADESTSTAYMELSSLRSEDTAVYYCARDMYYDFDYFGLTLTGDRNDDEVVPADDAFDIWGQGTLVTVSS
VL: QSALTQPASVSGSPGQSITISCTGTSSDVGGYDYVTWYQQHPGKAPKLMIYDVDTRPSGVSNRFSGSKSGNTASLTISGLQAEDEADYYCSSYTTSTSYVFGGGTKLTVL
notes: CRTH2R IgG
For the molecule B8, the EC50 with CRTH2R [1] was 16.7 nM. In addition, in the experiment with CRTH2R [2], the “antagonist activity” value is more than 20%.

B9: CRTH2-70 (antibody, V domains shown)
VH: QVQLVQSGAEVKKPGSSVKVSCKASGGTFSNHAIIWVRQAPGQGLEWMGGIIPIFGTPSYAQKFQGRVTITADESTSTAYMELSSLRSEDTAVYYCARDMYYDFDVISAGVVGAGNPEVVPADDAFDIWGQGTLVTVSS
VL: QSVLTQPPSVSAAPGQKVTISCSGSTSNIGNNFVSWYQQLPGTAPKLLIYDNEKRPSGIPDRFSGSKSGTSATLGITGLQTGDEADYYCGTWDERQTDESYVFGGGTKLTVL
In the case of B9, in the experiment with CRTH2R [2], the “antagonist activity” value is more than 20%.

B10: CRTH2 66 (antibody)
heavy chain (variable domain given): QVQLVESGGGVVQPGRSLRLSCAASGFDFSGYGMHWVRQAPGKGLEWVAVISYEGSNKFYADSVKGRFTISRDNSKNTLYLQMNSLRAEDTAVYYCARDLRELECEEWTIEVHGQEFAVHQDRGGVFSRGPCVDPRGVAGSFDVWGQGTLVTVSS
light chain (variable domain given): EIVMTQSPATLSVSPGERATLSCRASQGVGSNLAWYQQKPGQAPRLLIYRTSIRATGIPARFSGSGSGTEFTLTISSLQSEDFAVYYCQQYYSWPPLTFGGGTKVEIK
As to B10, the EC50 with CRTH2R [1] was 3.95 nM.

B11: CRTH2-60 (antibody, V domains shown)
VH: QVQLVQSGAEVKKPGSSVKVSCKASGGTFKNYAINWVRQAPGQGLEWMGAIIPKFGAANYAQKFQGRVTITADESTSTAYMELSSLRSEDTAVYYCARANQHFSAVRGLAFGYGYRIGGYHYYGMDVWGQGTLVTVSS
VL: QSVLTQPPSVSAAPGQKVTISCSGSTSNIGINYVSWYQQLPGTAPKLLIYENRKRPSGIPDRFSGSKSGTSATLGITGLQTGDEADYYCATWDASLKNLVFGGGTKLTVL
Consider B11, for which, in the experiment with CRTH2R [2], the “antagonist activity” value was more than 20%.

B12: CRTH2-8 (antibody, V domains shown)
VH: QVQLVQSGAEVKKPGSSVKVSCKASGGTFTDYAISWVRQAPGQGLEWMGGIIPFFGSPNYAQKFQGRVTITADESTSTAYMELSSLRSEDTAVYYCARDMYYDFAAGLEGTITEVFDEEGHQGGTEVVPADDAFDIWGQGTLVTVSS
VL: QSVLTQPPSVSAAPGQKVTISCSGSSSNIGKNYVSWYQQLPGTAPKLLIYDNNQRPSGIPDRFSGSKSGTSATLGITGLQTGDEADYYCGTWDTSLTSVVFGGGTKLTVL
notes: CRTH2R IgG
For the molecule B12, the EC50 with CRTH2R [1] worked out at 135 nM. Also, in the experiment with CRTH2R [2], the “antagonist activity” value was more than 20%.

B13: TIGIT-55-01 (antibody, V domains shown)
VH: EVQLLESGGGLVQPGGSLRLSCAASGFTFGSYGMSWVRQAPGKGLEWVSSISGSGSTTYYADSVKGRFTISRDNSKNTLYLQMNSLRAEDTAVYYCARVAGSSGWAFDYWGQGTLVTVSS
VL: DIQMTQSPSSLSASVGDRVTITCRASQAISNYLNWYQQKPGKAPKLLIYAASRLQSGVPSRFSGSGSGTDFTLTISSLQPEDFATYYCQESYSTPFTFGGGTKVEIK
notes: hTIGIT IgG
As a reminder, the Kd is the concentration at which binding is half-saturated. Consider B13, for which, in the experiment with human TIGIT, the Kd was found to be 15.9 nM.

B14: TIGIT-55-02 (antibody, V domains shown)
VH: EVQLLESGGGLVQPGGSLRLSCAASGLTFSNYAMTWVRQAPGKGLEWVSGISRSGGSTYYADSVKGRFTISRDNSKNTLYLQMNSLRAEDTAVYYCATLRLYSSGGGIDYWGQGTLVTVSS
VL: DIQMTQSPSSLSASVGDRVTITCRASQYISTYLNWYQQKPGKAPKLLIYAASSLQGGVPSRFSGSGSGTDFTLTISSLQPEDFATYYCQQNYITPLTFGGGTKVEIK
notes: hTIGIT IgG
B14 yielded a Kd with human TIGIT of 141 nM.

B15: CRTH2-24 (antibody, V domains shown)
VH: QVQLVQSGAEVKKPGSSVKVSCKASGGSFSNYGISWVRQAPGQGLEWMGGIIPLIGTANYAQKFQGRVTITADESTSTAYMELSSLRSEDTAVYYCARDMYYDFTLGPQSIGPLGEVVPADDAFDIWGQGTLVTVSS
VL: QSVLTQPPSVSAAPGQKVTISCSGSSSNIGNNFVSWYQQLPGTAPKLLIYDNIQRPSGIPDRFSGSKSGTSATLGITGLQTGDEADYYCGTWDTSLSAVVFGGGTKLTVLR
Consider B15, for which the “antagonist activity” value with CRTH2R [2] was more than 20%.

B16: CRTH2 39 (antibody, V domains shown)
VH: QVQLVQSGAEVKKPGSSVKVSCKASVDTFSRYSISWVRQAPGQGLEWMGGIIPVFDTTNYAQKFQGRVTITADESTSTAYMELSSLRSEDTAVYYCARDMYYDFGVILGGTAVGTNNGSANEVVPADDAFDIWGQGTLVTVSS
VL: QSVLTQPPSVSAAPGQKVTISCSGSSSNIGDNDVSWYQQLPGTAPKLLIYDDDKRPSGIPDRFSGSKSGTSATLGITGLQTGDEADYYCASWDTSLSGGYVFGGGTKLTVL
Regarding B16, the EC50 with CRTH2R [1] was 19 nM.
